Measured values: a protein production outcome set (Wang et al. 2014)

Experiment: label from the status in PepcDB records

Sequence | protein production
MSTDSVRSSTTGGSASGARTFCSLADLSTKKCVPCNAKDLRAMTEQSAQDLLQKVAGWDLANDNDTLKLHRSWRVKSFTKGLDFFQRVADIAESEGHHPDLHLVGWNNVKIEIWTHAIGGLTENDFILAAKINELQVEDLLRKKKVAK | failed
MSNFEKRNRKMAEKNIRKPKQERSIEKRNKILQVAKDLFSDKTYFNVTTNEIAKKADVSVGTLYAYFASKEDILTALLKRYNDFFLTTIFADINSQDSLDRFKKNPKEWLNVLINQLLAAEDKIFHAQIEMLAYAIPQAKALLEEHNNNLKNLTYKCLLYYSDQAANPSFKTLSLVVFDFISALVDELLYHEHTQEEAHQIKKTGIDSLDLIIKSYL | not failed
MEKLLTVFTPTYNRVHTLHKCYESLKNQSCKDFKWLIIDDGSTDGTKDVVKRWIHEKNDFEITYIYQSNKGMHGAHNTAYENIDTELNICIDSDDYMPRDAVEKINKNWNRVKHNKKISGLVGLDSYENGDVIGKKFPEGLKEATLFEINNKYKIPGDKKLVYRSELTKKFPYPIFEGEKYVGLAYKYYKLDEEHRLALINDILCVVEYLEDGSSKNMIKQYKNNPKGFAFYRIENIKNSKATLKFKFKESIHYVASSFISKNKNFLIESPEKILTLLSIPMGMLLYLYIKIKG | failed
MGTPNDQAVLQAIFNPDTPFGDIVGLDLGEEAEKEEREEDEVFPQAQLEQSKALELQGVMAAEAGDLSTALERFGQAICLLPERASAYNNRAQARRLQGDVAGALEDLERAVELSGGRGRAARQSFVQRGLLARLQGRDDDARRDFERAARLGSPFARRQLVLLNPYAALCNRMLADMMGQLRRPRDSR | failed
MFGRDGRLKESRVQKPERQQRLFGLSTPLRSAVIPPLSAARWLLVLIVAAGVYFFHGFLFPVLAALVIAFASWPLYQRLLAGVGGNRTIAATLAILFILAFLVIPIALAGTYAINEVREWVGWAIETNRHGAVTPHWIATMPVVGDWLNEQWTTNFGHPGGIGELIQLISGANIGSIYRGALAAGGSAFGLLLTLLFMMIALFFAYRDGEHFAGQVDRLGERILPTRWERISRVVPATISSTVTGMTVIAIGEGLVLGIAYWLAGVPSPVTLGALTGVMALIPGGAPLSFTLVSIYLAASGSPMAGLALFLWGAVELFIVDKTLRPKLVGGPIKLPFLPTFFGLIGGVKTMGFLGLFIGPVLMALLVAIWREWLREVELVDELAAGSAAEIEATPQIEVLPEPGVAKKARA | failed
MNYQLFKHSDENASYVVFSSGLGGHGSFWQAQLDVFRQYFHVLIYDQEGCHASSELLADGYSFEHLALQVKQLLQQLNIVRFHFIGHALGGFIGIELAHRYASETCQLLSLTLINAWQQLDPHTLRCFTTRIALLQHAGTAAYLHAQALFLYPPLWISEHTALLEQQEAKMQSDFPPHANVLKRLNALMQYQVNTARIDTLKQLPVCLIANQDDMLVPYVQSLNLWKKLPDAQLKLLPYGGHASTVTEARQVNQLMLDFLK | failed
MKIATYNVRVDTEYDQDWQWSFRKEAVCQLINFHDWSLCCIQEVRPNQVRDLKAYTTFTCLSAEREGDGQGEGLAILYNEQKVQAIDTGYFWLSETPQQPSIHPEAGCPRIALWGLFKETTQNTPFLVINVHLDHISAHARLAGMTVILEELHDKIAQYPTLLMGDFNAESGEEVHQLVQKKFQDSKNLATHYGPRGTFQNFTYTKPWAELEEIDYIYVKGWQVQQTASLTDSIDGRFPSDHFPLEAEVCIEE | failed
MSALIDTWFLGCRAAATAVLYVLFAVVAGGAVSAARAATVAASAPAPVTVGSGKKAVRQGISLELLVKPTHAEDGFSAAVVEGAYADVSLKMTDAATGHPVTVMQPRVWIDLRKGTGDFREKQMACSDKVRTYLQGTLSFRPDIDLNSYFVLTLNNDASISVIDPIIGVAGYSQLYAMILLKRPGEDWVFSFDGKRLYVTMPKAGEVAEIDTDSLAVVRNIPAGAMPVRMAFQPDSRYLWVGNDSSDPARSGVTVIDPFSGTQAAFIQTGAGHHEIAFADDSRYAFVTNQQSGTLTIIDIQSLAPVKTLRLGDGPVSVAYSALSKCAHVVCEGDGNLLVVDGLSHEIISRKTFEPGFREVRFAPGDRWYFTVNGKNGQILVFDAAGNELLHSTVVAGRPEHVSFSTEFAYIRSLGTADVTLIPLAALGKAAILTPLVVSGGSRPPADSPLLPPTADPIVVTPEGNSVLIASPSDGAVVYYMEGMGVPMGSFKTYGRLPRAVNVINRQLRQNVPGVFSSRVKIPLAGTYDVAVLLDSPRIVQCFEFSADANPALQRLKTERPVMVEFVGSALRVEAGRESVVRFRVTDPVTHEPVADLRDLIVVTSLVPTGAWRQQLVSRPVGNGIYEVTFTARKVGIYSFNFAIPSLKVKLYQLAGMMIHAVETPAEAGSDVPAGQKKD | failed
MDTPSRRSFLLAGGSFAIGVGAGLGIAHRDDVLPSRVVWAFETTGRIVSSPTVGDGTVYVGSDDSTVHSVSTSDGTRRTTARLHTKAGVFSSPALGADGGLYVGSTDTAIYGLFSSPGARDEWRFETTDWVTASPAVADGTVYVGSTDGTMYALNAETGAEQWRFETGDGIVSSPAVVDGTVYVGSTDGTVYALDADSGTDRWQFDTEGRVYSSPTVADGTVYVGSYDANIYAIDTTDGVEQWQFETGDSIWSSPTVLEETLWIGSKDAALYAVATEDGSEQWRFPTGGEVNSSPTVAGETVYVGSDDANLYAVAASDGSERWTFETGGAVQSSPTVADGTVYVGSGDSTLYALDADETGSSEGSRAELRTLGYFAE | failed
MKKEIASHLLEIGAVFLQPNDPFTWSSGMKSPIYCDNRLTLSYPKVRQTIAAGLEELIKEHFPTVEVIAGTATAGIAHAAWVSDRMDLPMCYVRSKAKGHGKGNQIEGKAEKGQKVVVVEDLISTGGSAITCVEALREAGCEVLGIVSIFTYELEAGKEKLEAANVASYSLSDYSALTEVAAEKGIIGQAETKKLQEWRKNPADEAWITA | not failed
VPMNIKGLFEVAVKVKNLEKSSQFYTEILGFEAGLLDSARRWNFLWVSGRAGMVVLQEEKENWQQQHFSFRVEKSEIEPLKKALESKGVSVHGPVNLEWMQAVSLYFADPNGHALEFTAL | not failed
MTKFYKFLISIIILALVCLIFFLAKSNILNLDSLKNLILSSGYFAPLIYIIAFALVPLTFFPDSILAILGGSIFGLGGGFLYTSIGALIGGSISFFISRILGQSFVEKFENDKLKNIQELLKDNGFLMILLLRLIPLFPFDLISYGAGLTKISYKDFALGTLIGTIPGILVFVNLGAQWITFNKTSIYLSVSLLILFIIVSVFLKKIYINKHLAKGN | failed
SLRSMVSDSVDEIVDGVSKTTAEVINGRKSIAQYATSLIENNPEPDNVRTIISQPLIKNTFLLVGFGLEKDGSNINNDPSWNPGPTWDPRVRPWYKDAKNAGKLVITAPYADSASGEILVSVATPVKDSATGQFLGSIFYDVSLAELAELVNEVKLFDAGYVFIVSEDGTTIAHPKKEFNGKPMSEFLGESKINVDTHQVIINGKPYAVSFSDVEGEDWYVGVVIDEEIAYAALDELRRS | not failed
MFPLTEENKHVAQLLLNTGTCPRCIFRFCGVDFHAPYKLPYKELLNELQKFLETEKDELILEVMNPPPKKIRLQELEDSIDNLSQNGEGRISVSHVGSTASKNSNLNVCNVCLGILQEFCEKDFIKKVCQKVEASGFEFTSLVFSVSFPPQLSVREHAAWLLVKQEMGKQSLSLGRDDIVQLKEAYKWITHPLFSEELGVPIDGKSLFEVSVVFAHPETVEDCHFLAAICPDCFKPAKNKQSVFTRMAVMKALNKIKEEDFLKQFPCPPNSPKAVCAVLEIECAHGAVFVAGRYNKYSRNLPQTPWIIDGERKLESSVEELISDHLLAVFKAESFNFSSSGREDVDVRTLGNGRPFAIELVNPHRVHFTSQEIKELQQKINNSSNKIQVRDLQLVTREAIGHMKEGEEEKTKTYSALIWTNKAIQKKDIEFLNDIKDLKIDQKTPLRVLHRRPLAVRARVIHFMETQYVDEHHFRLHLKTQAGTYIKEFVHGDFGRTKPNIGSLMNVTADILELDVESVDVDWPPALDD | failed
MVRRKKLLSGVLLLSGMLCTGRVMAQQWLYKQAAVPIEYRVKDLLGRMTIEEKVGQLCCPLGWEMYTKTGKNEVTVSELYKKKMAEAPVGSFWAVLRADPWTQKTLETGLSPELSAKALNALQKYAVEETRLGIPVLFAEECPHGHMAIGTTVFPTALSAASTWNEGLMLKMGEAIALEARLQGANIGYGPVLDVAREPRWSRMEETFGEDPVLTTIMGVAMMKGMQGKVQNDGKHLYATLKHFAAYGVPESGHNGSRANCGMRQLLSEYLPPFRKAVKEGAGTLMTSYNAIDGVPCTANKELLTDVLRNQWGFKGFVYSDLISIEGIVGMRAAKDNKEAAVKALKAGLDMDLGGNAFGKNLKKAYEEGLITMADLDRAVGNVLRLKFQMGLFENPYVSPELAKKLVHSKEHKELARQVAREGVVLLKNEGVLPLSKHIGHLAVIGPNADEMYNQLGDYTAPQVREEVATVLDGIRAAVSESTRVTYVKGCAVRDTTATDIPAAVAAAQKADAVVLVVGGSSARDFKTKYISTGAATVSEDAKTLPDMDCGEGFDRSSLRLLGDQEKLISAVASTGKPLVVVYIQGRTMNMNLAAEKAQALLTAWYPGEQGGMGIADILFGDYSPAGRLPVSVPRSEGQLPVFYSQGTQRDYVESKGTPLYAFGYGLSYTRFTYSGLELQKGTEMETLQTVACTVTNTGNRDGEEVVQLYIGDKVASVSQPPLLLKAFQRIFLKKGESRQVIFHLKKDDLGIYDSEMNYVVEPGEFKVMVGAASNDIRLEGEFVL | failed
MSLHPHLNANLEGGVLTLAINRPEAKNALYGELYLWIAKALDEADQNKDVRVVVLRGAEHDFTAGNDMKDFMGFVQNPNAGPAGQVPPFVLLKSAARLSKPLIIAVKGVAIGIGVTILLQADLVFADNTALFQIPFVSLGLSPEGGASQLLVKQAGYHKAAELLFTAKKFNAETALQAGLVNEIVEDAYATAQATAQHLTALPLASLKQTKALMKHDLDQIIECIDHEAEIFMQRVQSPEMLEAVQAFMQKRQPDFSQEGHHHHHH | not failed
MHLNNLNNFNNLENNGEYHCSGPIIKKPFRHIALTVPSSDITNFNEIFYVEPQYIAQAIRLTNTFQGAIDPLTLNFNFEKALQIANGLPNAGVTGTINQSVIHQTIEVSVMISQIKEIIRSVLGLVINSANFWNSVVSAITNTFTNLEPQVDENWIVWRNLSATQTSYFYKILFSIQNEDTGRFMAILPIAFEITVDVQKQQLLFITIKDSARYEVKMKALTVVQALDSYNAPIIDVFNVRNYSLHRPNHNILQNLNVNPIKS | not failed
MNFVLSDVADAEAEKAIRDPLVAYNLARFGESDKRDLNITIRNDDNSVTGGLVGHTARGWLYVQLLFVPEAMRGQGIAPKLLAMAEEEARKRGCMGAYIDTMNPDALRTYERYGFTKIGSLGPLSSGQSITWLEKRF | not failed
MVLIYCYKYFHEFMEAFDRIQKNIMEAHMKKVIGAATATVFGLGAFTTTATAETIVTADVLNVREKPTTESKVVEKVKNGQELKVINTEDGWSKIELNGKEVFVSSEFTKDIYHVTANLLNVRTEANTESKILGRLKKDDVIESTNQVKDGWLQFEYKGKTAYVNVSFLSSTAPVEKKADEKTKQVAKVQKMVKAKEEAKTQKVTKAKETIKPKEEEKVQEVVKPKEEEKVQEVVKPKEEEKVQEVVKPKEEEKIQEVAKPKEEAKVQEVAKPKEEEKVQEVAKPKEEEKVQEVVKPKEEEKVQEVAKSKEEAKVQEVAKPKEEAKVQEVVKPKEEAKVQEEAKAQEIAKAKEEAKAQEIAKAKEEEKAREIAKAKEEAKAQEIAKAKEEAKAQEIAKAKEEAKAQEIAKAKEEEKAREIAKAKEEAKAQEIAKAKEEAKAREIAKAKEEAKAREAIKAKEESKNNTQSAKRELTVVATAYTADPSENGTYGGRVLTAMGHDLTANPNMRIIAVDPKVIPLGSKVWVEGYGEAIAGDTGSAIKGNRIDVLMGSKSKAMDWGRQTVKVKIL | failed
MFQDPTDEYIRTITAHCDLAGKEVLEVGCGTGRITRDLARHARRVVAVDPDETALAKARSAVPAPNVQFLPMPDGVLHFPPASFDVVIHTLSLHHVPLDRMNESLRAAAGLVRDGGVIVVVEPGDGGSFTEAKERFGAGSGDERPGREAAIRAMHGLDGWTVGETVLFRVRFLFADEDDFIATKLPGFGEKPEAFQQEVREFLARHRTAEGVVLDAGRRLNVLRRG | failed
